Here are results for one molecule from US20140056890A1 (ONCEMED PHARMACEUTICALS, published 2014).

This assay concerns the target T1, pYAP (human, UniProt P46937, phosphorylated; site not stated in Example 13 (detected with phospho-YAP1 antibody #4911, Cell Signaling Technology; the anti-pYAP antibody of Examples 5 and 7 is to Ser127)).
T1 construct: full length, endogenous; also called phospho-YAP; phospho-YAP1
The assay can be described thus: co-immunoprecipitation: anti-FLAG IP from lysate of transiently transfected HEK-293T cells, Western blot with anti-phospho-YAP1. Here is the method: To validate these protein complexes, immunoprecipitates (see method described above) were prepared from HEK-293T cells transiently transfected with FLAG-tagged full-length CADM1, CADM3, PVR, PVRL1, and PVRL3, with CADM3-CD4TM-GFP and LGR5-CD4TM-GFP constructs as internal negative controls. Total cell lysates and the immunoprecipitate eluates were run on 4-12% Tris-Glycine Midi Gels (Life Technologies/Invitrogen, Grand Island, N.Y.) and transferred by iBlot onto PVDF membranes (Life Technologies/Invitrogen).

T1 sequence (P46937 whole entry): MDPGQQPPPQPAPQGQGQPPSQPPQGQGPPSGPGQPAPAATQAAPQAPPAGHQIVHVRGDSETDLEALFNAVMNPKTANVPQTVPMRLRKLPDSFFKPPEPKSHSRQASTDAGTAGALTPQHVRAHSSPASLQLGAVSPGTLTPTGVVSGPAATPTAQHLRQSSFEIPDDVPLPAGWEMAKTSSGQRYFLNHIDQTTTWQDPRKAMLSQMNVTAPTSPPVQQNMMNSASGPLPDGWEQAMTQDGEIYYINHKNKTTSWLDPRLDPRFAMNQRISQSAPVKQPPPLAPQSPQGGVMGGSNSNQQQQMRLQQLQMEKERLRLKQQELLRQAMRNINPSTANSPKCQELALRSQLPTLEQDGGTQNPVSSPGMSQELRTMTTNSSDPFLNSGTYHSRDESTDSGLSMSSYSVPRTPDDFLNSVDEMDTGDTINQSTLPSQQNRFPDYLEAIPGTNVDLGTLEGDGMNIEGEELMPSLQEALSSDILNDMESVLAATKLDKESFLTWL

B1: FLAG-tagged full-length PVR (receptor)
chain: WPPPGTGDVVVQAPTQVPGFLGDSVTLPCYLQVPNMEVTHVSQLTWARHGESGSMAVFHQTQGPSYSESKRLEFVAARLGAELRNASLRMFGLRVEDEGNYTCLFVTFPQGSRSVDIWLRVLAKPQNTAEVQKVQLTGEPVPMARCVSTGGRPPAQITWHSDLGGMPNTSQVPGFLSGTVTVTSLWILVPSSQVDGKNVTCKVEHESFEKPQLLTVNLTVYYPPEVSISGYDNNWYLGQNEATLTCDARSNPEPTGYNWSTTMGPLPPFAVAQGAQLLIRPVDKPINTTLICNVTNALGARQAELTVQVKEGPPSEHSGMSRNAIIFLVLGILVFLILLGIGIYFYWSKCSREVLWHCHLCPSSTEHASASANGHVSYSAVSRENSSSQDPQTEGTR
notes: Bait, transiently expressed in HEK-293T cells and immunoprecipitated from lysates with anti-FLAG agarose; also called Poliovirus receptor; NECL-5
For B1, the binding result was “no binding”.
